Data: patent publication US20190322730A1 (NGM BIOPHARMACEUTICALS, published 2019)

Legend:
[1] = biological target: T1, human complement component C3 (human, UniProt P01024 23-667; P01024 672-1663); experiment: SPR (Biacore), 37 C
T1 construct: also called human C3
Description: (§1) The binding affinities of exemplary anti-C3 antibodies to human C3 and cyno C3 were measured using a Biacore system (GE Healthcare LifeSciences). Briefly, anti-Fc antibody (Sigma-Aldrich) was immobilized on all four flow cells of a CM5 chip using amine coupling reagents (GE Healthcare LifeSciences). Antibodies were captured on flow cells 2, 3, and 4 using flow cell 1 as a reference. Concentrations ranging from 0.62-40 nM of human C3 or cyno C3 were injected at a flow rate of 50 μL/min at 37° C. Kinetic data were collected over time and fit using the simultaneous global fit equation to yield affinity constants (KD values) for each antibody.

[2] = biological target: T2, cynomolgus monkey complement component C3 (cynomolgus monkey, UniProt P01024 24-1663 (human entry)); experiment: SPR (Biacore), 37 C
T2 construct: In the hemolysis assays cyno serum was the source of C3; also called cyno C3
Description: as §1

[3] = biological target: T1, human complement component C3; experiment: cell-based or functional assay
[4] = biological target: T2, cynomolgus monkey complement component …; experiment: cell-based or functional assay
C3a [5] = biological target: T3, C3a (human, UniProt P01024 672-748); experiment: binding screen of Example 5, relative to control mIgG2
C3d [6] = biological target: T4, C3d (UniProt P01024 1002-1303, limits assumed); experiment: as above
T4 construct: domain: C3d

Factor Bb [7] = biological target: T5, Factor Bb (UniProt P00751 260-764); experiment: as above
T5 construct: domain: Factor Bb

[8] = biological target: T1, human complement component C3; experiment: binding screen of Example 5; method and unit not stated
C3a [9] = biological target: T3, C3a; experiment: as above
C3d [10] = biological target: T4, C3d; experiment: as above
Factor Bb [11] = biological target: T5, Factor Bb; experiment: as above
[12] = biological target: T1, human complement component C3; experiment: SPR (Biacore), antibody captured by anti-Fc, C3 injected 0.62-40 nM, 37 C
Description: as §1

[13] = biological target: T2, cynomolgus monkey complement component …; experiment: as above
Description: as §1

T2 sequence (P01024 other isoform, or with tags, fused parts or gaps): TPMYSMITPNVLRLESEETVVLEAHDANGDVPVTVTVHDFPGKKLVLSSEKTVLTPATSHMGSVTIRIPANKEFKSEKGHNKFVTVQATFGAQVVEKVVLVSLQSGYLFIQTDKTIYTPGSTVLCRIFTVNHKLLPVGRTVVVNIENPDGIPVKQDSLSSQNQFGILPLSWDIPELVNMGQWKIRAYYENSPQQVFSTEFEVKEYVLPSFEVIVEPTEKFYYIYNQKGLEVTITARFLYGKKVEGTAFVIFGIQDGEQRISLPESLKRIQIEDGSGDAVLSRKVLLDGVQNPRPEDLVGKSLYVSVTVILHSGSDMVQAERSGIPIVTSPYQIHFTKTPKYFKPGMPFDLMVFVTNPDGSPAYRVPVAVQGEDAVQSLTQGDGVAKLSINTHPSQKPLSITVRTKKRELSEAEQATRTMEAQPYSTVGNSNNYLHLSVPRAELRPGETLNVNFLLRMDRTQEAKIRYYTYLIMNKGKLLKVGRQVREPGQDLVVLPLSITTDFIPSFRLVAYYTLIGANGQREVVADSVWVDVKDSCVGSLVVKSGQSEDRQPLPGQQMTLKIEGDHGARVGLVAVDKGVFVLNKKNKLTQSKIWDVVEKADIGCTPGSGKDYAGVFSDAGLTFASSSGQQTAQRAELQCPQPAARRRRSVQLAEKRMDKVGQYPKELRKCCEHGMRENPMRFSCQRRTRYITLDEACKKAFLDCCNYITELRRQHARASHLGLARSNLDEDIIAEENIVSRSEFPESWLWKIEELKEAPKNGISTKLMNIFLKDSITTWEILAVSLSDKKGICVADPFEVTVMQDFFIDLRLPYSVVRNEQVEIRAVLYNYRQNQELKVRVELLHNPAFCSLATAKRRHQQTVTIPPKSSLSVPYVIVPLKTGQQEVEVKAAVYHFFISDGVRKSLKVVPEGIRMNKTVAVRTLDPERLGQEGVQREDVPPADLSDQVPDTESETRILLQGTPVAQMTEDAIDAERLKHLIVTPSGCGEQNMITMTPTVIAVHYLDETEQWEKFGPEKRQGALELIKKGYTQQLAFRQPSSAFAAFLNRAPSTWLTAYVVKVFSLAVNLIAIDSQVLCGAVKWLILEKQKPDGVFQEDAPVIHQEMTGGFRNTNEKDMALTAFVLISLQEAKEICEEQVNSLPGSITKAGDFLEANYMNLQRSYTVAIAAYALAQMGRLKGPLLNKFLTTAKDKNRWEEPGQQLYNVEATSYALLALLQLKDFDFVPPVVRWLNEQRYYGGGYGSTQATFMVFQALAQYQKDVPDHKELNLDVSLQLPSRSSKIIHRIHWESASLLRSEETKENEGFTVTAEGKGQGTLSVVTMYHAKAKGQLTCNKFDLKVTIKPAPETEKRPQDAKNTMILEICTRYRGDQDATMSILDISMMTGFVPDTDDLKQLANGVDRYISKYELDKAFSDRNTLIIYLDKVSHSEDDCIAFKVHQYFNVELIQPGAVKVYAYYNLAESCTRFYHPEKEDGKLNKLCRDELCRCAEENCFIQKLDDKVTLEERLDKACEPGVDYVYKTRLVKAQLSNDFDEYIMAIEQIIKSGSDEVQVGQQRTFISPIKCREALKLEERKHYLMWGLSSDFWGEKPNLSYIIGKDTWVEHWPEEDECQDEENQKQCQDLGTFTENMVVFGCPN
T1 sequence (P01024 23-667, chain 1 of 2): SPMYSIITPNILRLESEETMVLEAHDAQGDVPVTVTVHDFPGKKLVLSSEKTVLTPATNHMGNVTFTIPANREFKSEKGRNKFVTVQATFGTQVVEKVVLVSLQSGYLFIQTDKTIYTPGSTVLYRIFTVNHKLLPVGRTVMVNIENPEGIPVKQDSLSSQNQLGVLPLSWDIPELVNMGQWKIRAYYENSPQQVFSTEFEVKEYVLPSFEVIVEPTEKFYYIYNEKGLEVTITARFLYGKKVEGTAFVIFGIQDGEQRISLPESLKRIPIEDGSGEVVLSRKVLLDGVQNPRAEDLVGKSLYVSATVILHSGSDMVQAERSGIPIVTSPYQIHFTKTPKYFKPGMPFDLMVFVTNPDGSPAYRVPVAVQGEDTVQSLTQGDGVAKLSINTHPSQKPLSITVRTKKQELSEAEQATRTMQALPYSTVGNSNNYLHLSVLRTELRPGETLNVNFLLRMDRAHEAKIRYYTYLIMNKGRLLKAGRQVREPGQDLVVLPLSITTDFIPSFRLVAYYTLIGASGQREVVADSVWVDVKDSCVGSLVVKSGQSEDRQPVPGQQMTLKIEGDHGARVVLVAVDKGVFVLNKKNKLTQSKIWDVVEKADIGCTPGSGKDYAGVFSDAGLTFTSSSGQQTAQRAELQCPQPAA
T1 sequence (P01024 672-1663, chain 2 of 2): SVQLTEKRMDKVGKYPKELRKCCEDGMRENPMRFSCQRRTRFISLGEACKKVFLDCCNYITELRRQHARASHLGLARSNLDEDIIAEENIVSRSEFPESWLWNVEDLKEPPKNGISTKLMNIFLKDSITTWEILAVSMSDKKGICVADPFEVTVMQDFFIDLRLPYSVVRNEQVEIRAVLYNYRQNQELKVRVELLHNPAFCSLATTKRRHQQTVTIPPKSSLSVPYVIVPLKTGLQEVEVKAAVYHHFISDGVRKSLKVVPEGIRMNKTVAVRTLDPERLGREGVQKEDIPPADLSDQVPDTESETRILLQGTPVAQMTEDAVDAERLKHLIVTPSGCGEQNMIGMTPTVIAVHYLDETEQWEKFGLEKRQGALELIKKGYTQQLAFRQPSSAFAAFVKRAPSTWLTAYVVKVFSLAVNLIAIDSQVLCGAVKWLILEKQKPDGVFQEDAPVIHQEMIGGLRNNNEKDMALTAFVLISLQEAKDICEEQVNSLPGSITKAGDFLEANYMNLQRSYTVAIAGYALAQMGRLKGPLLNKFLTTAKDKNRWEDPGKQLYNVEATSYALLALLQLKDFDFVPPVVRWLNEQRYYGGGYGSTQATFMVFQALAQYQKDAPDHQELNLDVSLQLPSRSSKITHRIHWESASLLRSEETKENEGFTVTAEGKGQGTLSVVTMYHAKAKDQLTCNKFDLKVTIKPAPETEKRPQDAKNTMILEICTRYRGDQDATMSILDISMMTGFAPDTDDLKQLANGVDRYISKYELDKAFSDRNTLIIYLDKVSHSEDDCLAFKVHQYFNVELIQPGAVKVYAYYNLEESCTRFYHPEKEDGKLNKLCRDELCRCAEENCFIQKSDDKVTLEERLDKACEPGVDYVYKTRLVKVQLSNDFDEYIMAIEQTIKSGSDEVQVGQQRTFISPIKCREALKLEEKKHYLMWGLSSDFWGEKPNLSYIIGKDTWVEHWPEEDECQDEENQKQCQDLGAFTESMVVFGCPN
T3 sequence (P01024 672-748 limits assumed): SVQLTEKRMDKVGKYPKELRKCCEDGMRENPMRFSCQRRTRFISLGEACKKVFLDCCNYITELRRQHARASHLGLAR
T4 sequence (P01024 1002-1303 limits assumed): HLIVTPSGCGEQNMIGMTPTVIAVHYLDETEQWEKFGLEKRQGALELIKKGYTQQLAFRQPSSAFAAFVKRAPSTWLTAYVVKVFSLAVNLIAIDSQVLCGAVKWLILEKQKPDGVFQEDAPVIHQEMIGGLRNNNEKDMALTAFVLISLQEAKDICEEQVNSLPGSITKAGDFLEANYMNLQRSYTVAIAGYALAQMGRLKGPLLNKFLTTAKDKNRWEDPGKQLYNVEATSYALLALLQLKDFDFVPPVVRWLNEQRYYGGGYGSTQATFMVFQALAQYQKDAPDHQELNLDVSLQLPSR
T5 sequence (P00751 260-764 limits assumed): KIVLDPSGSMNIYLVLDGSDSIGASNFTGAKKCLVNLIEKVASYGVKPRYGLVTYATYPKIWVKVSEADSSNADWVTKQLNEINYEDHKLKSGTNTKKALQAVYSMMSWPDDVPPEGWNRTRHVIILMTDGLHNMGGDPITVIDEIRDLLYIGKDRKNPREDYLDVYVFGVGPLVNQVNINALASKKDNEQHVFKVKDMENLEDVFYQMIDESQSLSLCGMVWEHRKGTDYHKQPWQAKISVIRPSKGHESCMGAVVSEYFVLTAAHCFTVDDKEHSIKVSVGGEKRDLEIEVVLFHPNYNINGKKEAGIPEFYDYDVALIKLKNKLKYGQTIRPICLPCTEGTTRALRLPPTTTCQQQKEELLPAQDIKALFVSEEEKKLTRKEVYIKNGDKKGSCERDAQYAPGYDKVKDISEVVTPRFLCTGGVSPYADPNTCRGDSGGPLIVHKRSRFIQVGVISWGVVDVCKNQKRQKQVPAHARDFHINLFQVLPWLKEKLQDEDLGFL

Kd [1]: ~0.1 nM | Kd [2]: ~0.1 nM | binding result (C3a [5]): no binding | binding result (C3d [6]): no binding | binding result (Factor Bb [7]): no binding | binding relative to negative control mIgG2 [8]: 0.53 | binding relative to negative control mIgG2 (C3a [9]): 0.02 | binding relative to negative control mIgG2 (C3d [10]): 0 | binding relative to negative control mIgG2 (Factor Bb [11]): 0.01 | Kd [12]: 0.19 nM | Kd [13]: 0.16 nM
B1: antibody 38G10 (antibody, V domains shown)
VH: EVQLQQSGPELVKPGDSVKMSCKASGYTFTDFYMDWVKQSHGKSLEWIGYIYPHNGGTTYNQNFTGKATLTVDKSSNTAYMELHSLTSEDSAVYYCARRGGFDFDYWGQGTTLTVSS
VL: NIVMTQSPKSMSLSVGERVTLRCKASENVDTYVSWYQQKPEQSPKLLIYGASNRYTGVPDRFTGSGSATEFTLTISSVQAEDLVGYHCGQSHSYPLTFGAGTKLELK
notes: Mouse hybridoma antibody; Parent of Hz38G10; also called parental 38G10 antibody
Hemolytic Assay IC50, Human AP [3]: 1.9 nM | Hemolytic Assay IC50, Human CP [3]: 1.7 nM | Hemolytic Assay IC50, Cyno AP [4]: 3.5 nM
